Measurements taken from paper PMC10580588.

Target: FLAG-tagged full-length senataxin (SETX) (human) (UniProt Q7Z333)
Experiment: co-IP; SETX immunoprecipitated, the IP'd material treated with or without RNase A; bands measured by densitometry; IgG only IP as negative control

Sequence of UniProt Q7Z333 (Q7Z333 whole entry): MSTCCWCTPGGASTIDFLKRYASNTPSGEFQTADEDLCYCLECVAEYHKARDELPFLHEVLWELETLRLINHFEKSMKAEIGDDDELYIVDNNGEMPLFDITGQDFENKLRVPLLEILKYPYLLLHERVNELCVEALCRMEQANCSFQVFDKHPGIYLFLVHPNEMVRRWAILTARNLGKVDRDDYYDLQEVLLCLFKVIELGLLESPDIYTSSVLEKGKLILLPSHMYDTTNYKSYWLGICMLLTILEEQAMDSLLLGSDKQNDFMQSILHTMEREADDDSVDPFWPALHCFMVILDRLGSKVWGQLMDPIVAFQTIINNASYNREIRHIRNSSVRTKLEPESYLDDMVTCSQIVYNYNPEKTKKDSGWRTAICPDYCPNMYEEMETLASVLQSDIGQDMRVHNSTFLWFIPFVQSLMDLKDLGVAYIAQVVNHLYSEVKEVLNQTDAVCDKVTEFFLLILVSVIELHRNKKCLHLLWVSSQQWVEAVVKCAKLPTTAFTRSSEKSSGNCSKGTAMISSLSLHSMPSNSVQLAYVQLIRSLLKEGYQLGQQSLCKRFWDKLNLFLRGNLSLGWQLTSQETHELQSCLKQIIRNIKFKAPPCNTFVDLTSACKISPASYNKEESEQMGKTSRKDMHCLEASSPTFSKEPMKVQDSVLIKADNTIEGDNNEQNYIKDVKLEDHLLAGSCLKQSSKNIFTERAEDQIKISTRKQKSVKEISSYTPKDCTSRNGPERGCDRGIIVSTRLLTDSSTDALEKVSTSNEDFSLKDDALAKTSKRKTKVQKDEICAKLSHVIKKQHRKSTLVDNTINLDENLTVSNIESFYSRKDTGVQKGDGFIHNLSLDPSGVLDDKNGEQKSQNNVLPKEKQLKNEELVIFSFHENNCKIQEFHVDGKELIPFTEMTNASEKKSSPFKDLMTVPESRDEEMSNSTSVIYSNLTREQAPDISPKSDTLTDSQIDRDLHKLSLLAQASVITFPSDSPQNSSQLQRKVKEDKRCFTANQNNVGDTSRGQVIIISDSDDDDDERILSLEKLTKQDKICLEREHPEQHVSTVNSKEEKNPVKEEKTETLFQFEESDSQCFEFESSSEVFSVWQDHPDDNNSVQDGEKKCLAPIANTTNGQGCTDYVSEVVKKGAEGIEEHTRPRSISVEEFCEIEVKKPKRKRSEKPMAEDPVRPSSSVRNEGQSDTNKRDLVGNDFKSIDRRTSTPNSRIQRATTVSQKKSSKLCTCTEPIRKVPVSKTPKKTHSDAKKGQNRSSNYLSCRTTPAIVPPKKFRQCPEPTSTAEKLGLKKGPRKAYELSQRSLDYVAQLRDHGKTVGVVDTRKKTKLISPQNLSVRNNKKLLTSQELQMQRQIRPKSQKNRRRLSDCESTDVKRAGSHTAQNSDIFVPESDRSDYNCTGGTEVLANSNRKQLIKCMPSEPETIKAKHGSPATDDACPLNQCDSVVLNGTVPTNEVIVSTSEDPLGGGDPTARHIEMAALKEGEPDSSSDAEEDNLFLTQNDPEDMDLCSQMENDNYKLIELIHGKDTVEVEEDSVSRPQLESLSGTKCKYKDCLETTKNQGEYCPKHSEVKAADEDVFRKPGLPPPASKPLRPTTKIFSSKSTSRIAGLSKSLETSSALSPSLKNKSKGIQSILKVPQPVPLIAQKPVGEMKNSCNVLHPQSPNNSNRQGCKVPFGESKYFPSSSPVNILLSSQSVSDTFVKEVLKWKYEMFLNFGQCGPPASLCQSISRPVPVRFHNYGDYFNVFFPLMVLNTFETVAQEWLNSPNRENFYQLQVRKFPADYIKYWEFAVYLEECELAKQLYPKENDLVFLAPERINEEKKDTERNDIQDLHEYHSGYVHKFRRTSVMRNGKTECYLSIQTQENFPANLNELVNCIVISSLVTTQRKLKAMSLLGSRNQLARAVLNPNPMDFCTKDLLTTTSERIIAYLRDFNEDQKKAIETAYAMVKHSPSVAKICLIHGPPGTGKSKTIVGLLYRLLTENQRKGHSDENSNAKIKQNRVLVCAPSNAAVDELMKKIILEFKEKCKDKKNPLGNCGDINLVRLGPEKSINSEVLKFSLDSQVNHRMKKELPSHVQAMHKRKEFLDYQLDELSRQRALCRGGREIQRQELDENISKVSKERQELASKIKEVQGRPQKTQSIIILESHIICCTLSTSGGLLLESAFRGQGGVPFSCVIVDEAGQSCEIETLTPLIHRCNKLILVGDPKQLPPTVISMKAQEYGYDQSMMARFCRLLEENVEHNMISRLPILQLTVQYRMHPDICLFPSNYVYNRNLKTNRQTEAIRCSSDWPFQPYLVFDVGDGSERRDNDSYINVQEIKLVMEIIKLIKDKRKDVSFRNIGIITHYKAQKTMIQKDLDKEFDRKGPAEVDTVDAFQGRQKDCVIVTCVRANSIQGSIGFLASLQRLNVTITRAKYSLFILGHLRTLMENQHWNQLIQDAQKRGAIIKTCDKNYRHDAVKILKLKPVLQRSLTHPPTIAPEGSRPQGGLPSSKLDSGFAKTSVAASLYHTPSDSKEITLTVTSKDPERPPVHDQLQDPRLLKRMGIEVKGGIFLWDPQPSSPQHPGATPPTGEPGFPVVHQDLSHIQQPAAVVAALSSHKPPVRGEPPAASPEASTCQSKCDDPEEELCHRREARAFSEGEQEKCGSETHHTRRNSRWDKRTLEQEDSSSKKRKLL

GFP-GR30 (peptide)
percent reduction of the co-IP band upon RNase A treatment: 32%
